{"source": "paper PMC7367873", "about": "“Dissecting the sequence determinants for dephosphorylation by the catalytic subunits of phosphatases PP1 and PP2A” (Nature Communications, 2020)", "key": {"[1]": {"test_system": "GFP-14-3-3β and its binding proteins", "test": "GFP-14-3-3β co-IP with LC-MS/MS label-free quantification, untreated versus PP1c-treated", "design": "species or system human", "conditions": "PP1 vs untreated; LFQ intensities, replicates 1-3"}, "GFP-14-3-3β": {"test_system": "GFP-14-3-3β", "test": "GFP-14-3-3β co-IP with LC-MS/MS, untreated GFP-14-3-3β versus GFP control (14-3-3 interactome)", "assay_type": "binding, human", "conditions": "untreated vs GFP; LFQ intensities, replicates 1-3"}}}
{"molecule": "ZAK (protein, UniProt Q9NYL2 2-800, looked up) Mitogen-activated protein …: SSLGASFVQIKFDDLQFFENCGGGSFGSVYRAKWISQDKEVAVKKLLKIEKEAEILSVLSHRNIIQFYGVILEPPNYGIVTEYASLGSLYDYINSNRSEEMDMDHIMTWATDVAKGMHYLHMEAPVKVIHRDLKSRNVVIAADGVLKICDFGASRFHNHTTHMSLVGTFPWMAPEVIQSLPVSETCDTYSYGVVLWEMLTREVPFKGLEGLQVAWLVVEKNERLTIPSSCPRSFAELLHQCWEADAKKRPSFKQIISILESMSNDTSLPDKCNSFLHNKAEWRCEIEATLERLKKLERDLSFKEQELKERERRLKMWEQKLTEQSNTPLLPSFEIGAWTEDDVYCWVQQLVRKGDSSAEMSVYASLFKENNITGKRLLLLEEEDLKDMGIVSKGHIIHFKSAIEKLTHDYINLFHFPPLIKDSGGEPEENEEKIVNLELVFGFHLKPGTGPQDCKWKMYMEMDGDEIAITYIKDVTFNTNLPDAEILKMTKPPFVMEKWIVGIAKSQTVECTVTYESDVRTPKSTKHVHSIQWSRTKPQDEVKAVQLAIQTLFTNSDGNPGSRSDSSADCQWLDTLRMRQIASNTSLQRSQSNPILGSPFFSHFDGQDSYAAAVRRPQVPIKYQQITPVNQSRSSSPTQYGLTKNFSSLHLNSRDSGFSSGNTDTSSERGRYSDRSRNKYGRGSISLNSSPRGRYSGKSQHSTPSRGRYPGKFYRVSQSALNPHQSPDFKRSPRDLHQPNTIPGMPLHPETDSRASEEDSKVSEGGWTKVEYRKKPHRPSPAKTNKERARGDHRGWRNF", "values": [{"measurement": "Difference (log2), PP1 vs untreated", "setting": "[1]", "value": -1.506, "unit": "log2"}, {"measurement": "Difference (log2), untreated vs GFP", "setting": "GFP-14-3-3β", "value": 2.661, "unit": "log2"}]}
{"molecule": "NOP2 (protein, UniProt P46087 1-812, looked up) 28S rRNA …: MGRKLDPTKEKRGPGRKARKQKGAETELVRFLPAVSDENSKRLSSRARKRAAKRRLGSVEAPKTNKSPEAKPLPGKLPKGISAGAVQTAGKKGPQSLFNAPRGKKRPAPGSDEEEEEEDSEEDGMVNHGDLWGSEDDADTVDDYGADSNSEDEEEGEALLPIERAARKQKAREAAAGIQWSEEETEDEEEEKEVTPESGPPKVEEADGGLQINVDEEPFVLPPAGEMEQDAQAPDLQRVHKRIQDIVGILRDFGAQREEGRSRSEYLNRLKKDLAIYYSYGDFLLGKLMDLFPLSELVEFLEANEVPRPVTLRTNTLKTRRRDLAQALINRGVNLDPLGKWSKTGLVVYDSSVPIGATPEYLAGHYMLQGASSMLPVMALAPQEHERILDMCCAPGGKTSYMAQLMKNTGVILANDANAERLKSVVGNLHRLGVTNTIISHYDGRQFPKVVGGFDRVLLDAPCSGTGVISKDPAVKTNKDEKDILRCAHLQKELLLSAIDSVNATSKTGGYLVYCTCSITVEENEWVVDYALKKRNVRLVPTGLDFGQEGFTRFRERRFHPSLRSTRRFYPHTHNMDGFFIAKFKKFSNSIPQSQTGNSETATPTNVDLPQVIPKSENSSQPAKKAKGAAKTKQQLQKQQHPKKASFQKLNGISKGADSELSTVPSVTKTQASSSFQDSSQPAGKAEGIREPKVTGKLKQRSPKLQSSKKVAFLRQNAPPKGTDTQTPAVLSPSKTQATLKPKDHHQPLGRAKGVEKQQLPEQPFEKAAFQKQNDTPKGPQPPTVSPIRSSRPPPAKRKKSQSRGNSQLLLS", "values": [{"measurement": "Difference (log2), PP1 vs untreated", "setting": "[1]", "value": -1.5353, "unit": "log2"}, {"measurement": "Difference (log2), untreated vs GFP", "setting": "GFP-14-3-3β", "value": 2.385, "unit": "log2"}]}
{"molecule": "SH3PXD2A (protein, UniProt Q5TCZ1 1-1133, looked up) SH3 and PX domain-containing …: MLAYCVQDATVVDVEKRRNPSKHYVYIINVTWSDSTSQTIYRRYSKFFDLQMQLLDKFPIEGGQKDPKQRIIPFLPGKILFRRSHIRDVAVKRLKPIDEYCRALVRLPPHISQCDEVFRFFEARPEDVNPPKEDYGSSKRKSVWLSSWAESPKKDVTGADATAEPMILEQYVVVSNYKKQENSELSLQAGEVVDVIEKNESGWWFVSTSEEQGWVPATYLEAQNGTRDDSDINTSKTGEVSKRRKAHLRRLDRRWTLGGMVNRQHSREEKYVTVQPYTSQSKDEIGFEKGVTVEVIRKNLEGWWYIRYLGKEGWAPASYLKKAKDDLPTRKKNLAGPVEIIGNIMEISNLLNKKASGDKETPPAEGEGHEAPIAKKEISLPILCNASNGSAVGVPDRTVSRLAQGSPAVARIAPQRAQISSPNLRTRPPPRRESSLGFQLPKPPEPPSVEVEYYTIAEFQSCISDGISFRGGQKAEVIDKNSGGWWYVQIGEKEGWAPASYIDKRKKPNLSRRTSTLTRPKVPPPAPPSKPKEAEEGPTGASESQDSPRKLKYEEPEYDIPAFGFDSEPELSEEPVEDRASGERRPAQPHRPSPASSLQRARFKVGESSEDVALEEETIYENEGFRPYAEDTLSARGSSGDSDSPGSSSLSLTRKNSPKSGSPKSSSLLKLKAEKNAQAEMGKNHSSASFSSSITINTTCCSSSSSSSSSLSKTSGDLKPRSASDAGIRGTPKVRAKKDADANAGLTSCPRAKPSVRPKPFLNRAESQSQEKMDISTLRRQLRPTGQLRGGLKGSKSEDSELPPQTASEAPSEGSRRSSSDLITLPATTPPCPTKKEWEGPATSYMTCSAYQKVQDSEISFPAGVEVQVLEKQESGWWYVRFGELEGWAPSHYLVLDENEQPDPSGKELDTVPAKGRQNEGKSDSLEKIERRVQALNTVNQSKKATPPIPSKPPGGFGKTSGTPAVKMRNGVRQVAVRPQSVFVSPPPKDNNLSCALRRNESLTATDGLRGVRRNSSFSTARSAAAEAKGRLAERAASQGSDSPLLPAQRNSIPVSPVRPKPIEKSQFIHNNLKDVYVSIADYEGDEETAGFQEGVSMEVLERNPNGWWYCQILDGVKPFKGWVPSNYLEKKN", "values": [{"measurement": "Difference (log2), PP1 vs untreated", "setting": "[1]", "value": -1.555, "unit": "log2"}, {"measurement": "Difference (log2), untreated vs GFP", "setting": "GFP-14-3-3β", "value": 3.934, "unit": "log2"}]}
{"molecule": "MAP3K2 (protein, UniProt Q9Y2U5 1-619, looked up) Mitogen-activated protein …: MDDQQALNSIMQDLAVLHKASRPALSLQETRKAKSSSPKKQNDVRVKFEHRGEKRILQFPRPVKLEDLRSKAKIAFGQSMDLHYTNNELVIPLTTQDDLDKAVELLDRSIHMKSLKILLVINGSTQATNLEPLPSLEDLDNTVFGAERKKRLSIIGPTSRDRSSPPPGYIPDELHQVARNGSFTSINSEGEFIPESMDQMLDPLSLSSPENSGSGSCPSLDSPLDGESYPKSRMPRAQSYPDNHQEFSDYDNPIFEKFGKGGTYPRRYHVSYHHQEYNDGRKTFPRARRTQGTSLRSPVSFSPTDHSLSTSSGSSIFTPEYDDSRIRRRGSDIDNPTLTVMDISPPSRSPRAPTNWRLGKLLGQGAFGRVYLCYDVDTGRELAVKQVQFDPDSPETSKEVNALECEIQLLKNLLHERIVQYYGCLRDPQEKTLSIFMEYMPGGSIKDQLKAYGALTENVTRKYTRQILEGVHYLHSNMIVHRDIKGANILRDSTGNVKLGDFGASKRLQTICLSGTGMKSVTGTPYWMSPEVISGEGYGRKADIWSVACTVVEMLTEKPPWAEFEAMAAIFKIATQPTNPKLPPHVSDYTRDFLKRIFVEAKLRPSADELLRHMFVHYH", "values": [{"measurement": "Difference (log2), PP1 vs untreated", "setting": "[1]", "value": -1.618, "unit": "log2"}, {"measurement": "Difference (log2), untreated vs GFP", "setting": "GFP-14-3-3β", "value": 6.201, "unit": "log2"}]}
{"molecule": "MITF (protein, UniProt O75030 1-526, looked up) Microphthalmia-associated …: MQSESGIVPDFEVGEEFHEEPKTYYELKSQPLKSSSSAEHPGASKPPISSSSMTSRILLRQQLMREQMQEQERREQQQKLQAAQFMQQRVPVSQTPAINVSVPTTLPSATQVPMEVLKVQTHLENPTKYHIQQAQRQQVKQYLSTTLANKHANQVLSLPCPNQPGDHVMPPVPGSSAPNSPMAMLTLNSNCEKEGFYKFEEQNRAESECPGMNTHSRASCMQMDDVIDDIISLESSYNEEILGLMDPALQMANTLPVSGNLIDLYGNQGLPPPGLTISNSCPANLPNIKRELTACIFPTESEARALAKERQKKDNHNLIERRRRFNINDRIKELGTLIPKSNDPDMRWNKGTILKASVDYIRKLQREQQRAKELENRQKKLEHANRHLLLRIQELEMQARAHGLSLIPSTGLCSPDLVNRIIKQEPVLENCSQDLLQHHADLTCTTTLDLTDGTITFNNNLGTGTEANQAYSVPTKMGSKLEDILMDDTLSPVGVTDPLLSSVSPGASKTSSRRSSMSMEETEHTC", "values": [{"measurement": "Difference (log2), PP1 vs untreated", "setting": "[1]", "value": -1.637, "unit": "log2"}, {"measurement": "Difference (log2), untreated vs GFP", "setting": "GFP-14-3-3β", "value": 4.611, "unit": "log2"}]}
{"molecule": "CCT2 (protein, UniProt P78371 2-535, looked up) T-complex protein 1 subunit …: ASLSLAPVNIFKAGADEERAETARLTSFIGAIAIGDLVKSTLGPKGMDKILLSSGRDASLMVTNDGATILKNIGVDNPAAKVLVDMSRVQDDEVGDGTTSVTVLAAELLREAESLIAKKIHPQTIIAGWREATKAAREALLSSAVDHGSDEVKFRQDLMNIAGTTLSSKLLTHHKDHFTKLAVEAVLRLKGSGNLEAIHIIKKLGGSLADSYLDEGFLLDKKIGVNQPKRIENAKILIANTGMDTDKIKIFGSRVRVDSTAKVAEIEHAEKEKMKEKVERILKHGINCFINRQLIYNYPEQLFGAAGVMAIEHADFAGVERLALVTGGEIASTFDHPELVKLGSCKLIEEVMIGEDKLIHFSGVALGEACTIVLRGATQQILDEAERSLHDALCVLAQTVKDSRTVYGGGCSEMLMAHAVTQLANRTPGKEAVAMESYAKALRMLPTIIADNAGYDSADLVAQLRAAHSEGNTTAGLDMREGTIGDMAILGITESFQVKRQVLLSAAEAAEVILRVDNIIKAAPRKRVPDHHPC", "values": [{"measurement": "Difference (log2), PP1 vs untreated", "setting": "[1]", "value": -1.71, "unit": "log2"}, {"measurement": "Difference (log2), untreated vs GFP", "setting": "GFP-14-3-3β", "value": 0.06414, "unit": "log2"}]}
{"molecule": "RHPN2 (protein, UniProt Q8IUC4 1-686, looked up) Rhophilin-2: MTDALLPAAPQPLEKENDGYFRKGCNPLAQTGRSKLQNQRAALNQQILKAVRMRTGAENLLKVATNSKVREQVRLELSFVNSDLQMLKEELEGLNISVGVYQNTEEAFTIPLIPLGLKETKDVDFAVVLKDFILEHYSEDGYLYEDEIADLMDLRQACRTPSRDEAGVELLMTYFIQLGFVESRFFPPTRQMGLLFTWYDSLTGVPVSQQNLLLEKASVLFNTGALYTQIGTRCDRQTQAGLESAIDAFQRAAGVLNYLKDTFTHTPSYDMSPAMLSVLVKMMLAQAQESVFEKISLPGIRNEFFMLVKVAQEAAKVGEVYQQLHAAMSQAPVKENIPYSWASLACVKAHHYAALAHYFTAILLIDHQVKPGTDLDHQEKCLSQLYDHMPEGLTPLATLKNDQQRRQLGKSHLRRAMAHHEESVREASLCKKLRSIEVLQKVLCAAQERSRLTYAQHQEEDDLLNLIDAPSVVAKTEQEVDIILPQFSKLTVTDFFQKLGPLSVFSANKRWTPPRSIRFTAEEGDLGFTLRGNAPVQVHFLDPYCSASVAGAREGDYIVSIQLVDCKWLTLSEVMKLLKSFGEDEIEMKVVSLLDSTSSMHNKSATYSVGMQKTYSMICLAIDDDDKTDKTKKISKKLSFLSWGTNKNRQKSASTLCLPSVGAARPQVKKKLPSPFSLLNSDSSWY", "values": [{"measurement": "Difference (log2), PP1 vs untreated", "setting": "[1]", "value": -1.815, "unit": "log2"}, {"measurement": "Difference (log2), untreated vs GFP", "setting": "GFP-14-3-3β", "value": 5.43, "unit": "log2"}]}
